The values below come from article PMC8041770 (2021).

In the assay the target is recombinant human LIF, histidine-tagged (hLIF-His) (human, UniProt P15018 23-202). The assay is described as follows: FACS. (In general: Flow cytometry measures light scatter and fluorescence of single cells or particles in a stream.)
Chain of recombinant human LIF, histidine-tagged (hLIF-His) (P15018 23-202): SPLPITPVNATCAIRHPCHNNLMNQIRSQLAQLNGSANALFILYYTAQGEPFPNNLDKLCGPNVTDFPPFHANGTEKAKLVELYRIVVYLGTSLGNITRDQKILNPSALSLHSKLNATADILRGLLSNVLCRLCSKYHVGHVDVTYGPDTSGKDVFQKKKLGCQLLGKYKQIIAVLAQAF

B1: yeast-displayed eLIFR CBM I–Ig-like–CBM II domains (designed binder)
chain: QKKGAPHDLKCVTNNLQVWNCSWKAPSGTGRGTDYEVCIENRSRSCYQLEKTSIKIPALSHGDYEITINSLHDFGSSTSKFTLNEQNVSLIPDTPEILNLSADFSTSTLYLKWNDRGSVFPHRSNVIWEIKVLRKESMELVKLVTHNTTLNGKDTLHHWSWASDMPLECAIHFVEIRCYIDNLHFSGLEEWSDWSPVKNISWIPDSQTKVFPQDKVVPVGSDITFCCVSQEKVLSALIGRTNCPLIHLDGENVAIKVRNVSASASSGTNVVFITEDDIFGTVIFAGYPPDTPQQLNCETHDLKEIICSWNPGRVTALVGPRATSYTLVESFSGKYVRLKRAEAPTNESYQLLFQMLPNQEIYNFTLNAHNPLGRSQSTILVNITEKVYPHTPTSFKVKDINSTAVKLSWHLPGNFAKINFLCEIEIKKSNSVQEQRNVTIKGVENSSYLVALDKLNPYTLYTFRIRCSTETFWKWSKWSNKKQHLTTEAS
B1: the Kd – broadly, the equilibrium constant for the complex coming apart – amounted to 0.014 nM.
